In assay [1] the target is MAb 458-3. Kind of assay: MAb inhibition ELISA; free peptide against 458-3 binding to the coated target conjugate. (In general: ELISA stands for enzyme-linked immunosorbent assay.)
Assay [2] has as its target MAb 458-3. Kind of assay: MAb inhibition ELISA; free peptide inhibits 458-3 binding to the coated target conjugate.
Assay [3] concerns the target MAb 458-1. The experiment in a line: MAb inhibition ELISA; free peptide inhibits 458-1 binding to the coated target conjugate.
The target of another assay is MAb 458-5. The experiment in a line: MAb inhibition ELISA; free peptide inhibits 458-5 binding to the coated target conjugate.
Another assay deals with MAb 458-4. The experiment in a line: MAb inhibition ELISA; free peptide inhibits 458-4 binding to the coated target conjugate.
Another assay concerns the target MAb 458-2. Kind of assay: MAb inhibition ELISA; free peptide inhibits 458-2 binding to the coated target conjugate.
In a further assay the target is MAb 401-2. Kind of assay: MAb inhibition ELISA; free peptide inhibits 401-2 binding to the coated G34 N-terminal peptide-BSA.
A further assay has as its target MAb 445-1. Kind of assay: MAb inhibition ELISA; free peptide inhibits 445-1 binding to coated hG34(16-34)-Gly 35-BSA.
In the next assay the target is MAb 445-2. Kind of assay: MAb inhibition ELISA; free peptide inhibits 445-2 binding to coated hG34(16-34)-Gly 35-BSA.
A further assay has as its target MAb 400-1. Kind of assay: MAb inhibition ELISA; free peptide inhibits 400-1 binding to coated hG17(1-9)-“Ala”-BSA.
In another assay the target is MAb 400-2. The experiment in a line: MAb inhibition ELISA; free peptide inhibits 400-2 binding to coated hG17(1-9)-“Ala”-BSA.
Another assay addresses MAb 400-3. Kind of assay: MAb inhibition ELISA; free peptide inhibits 400-3 binding to coated hG17(1-9)-“Ala”-BSA.
The target in another assay is MAb 400-4. The experiment in a line: MAb inhibition ELISA; free peptide inhibits 400-4 binding to coated hG17(1-9)-“Ala”-BSA.
Assay [4] has as its target MAb 458-1. Kind of assay: MAb inhibition ELISA; free peptide against 458-1 binding to the coated target conjugate.

Where no end group is shown, it is not given here. [ ]: non-standard residue; d: D form. pGlu = O=C1CC[C@@H](C(=O)O)N1

B1: hG17(9) (peptide)
peptide: EGPWLEEEE
As usually defined, the Inhibition is the change of the read-out against control, counted positive when it falls. B1 came in with an Inhibition at 10 nmol/ml (250 pmoles/well) with MAb 458-3 [1] of 1.2%.

B2: CCK (26-33) unsulfated (peptide)
peptide: DYMGWMDF-NH2
As to B2, the Inhibition at 10 nmol/ml (250 pmoles/well) came out at 84.8% with MAb 458-3 [2]; 93.8% with MAb 458-1 [3]; 92% with MAb 458-5; 83.4% in the assay with MAb 458-4; 84.8% with MAb 458-2.

B3: human gastrin-34 (G34) (peptide)
peptide: [pGlu]LGPQGPPHLVADPSKKEGPWLEEEEEAYGWMDF-NH2
modifications: ends and bridges not checked
As a reminder, the IC50 is the concentration that inhibits the measured activity by half. A lower IC50 goes with inhibition by little substance. As for B3, the Inhibition at 10 nmol/ml (250 pmoles/well) with MAb 458-3 [2] was 90.7%; with MAb 458-1 [3], 93.5%; with MAb 458-5, 91.5%; with MAb 458-4, 86.7%; in the assay with MAb 458-2, 84.5%. Also, in the assay with MAb 401-2, the IC50 was found to be 700 nM.

B4: hG17(12-17)-Gly18 peptide … (peptide)
peptide: CPPPPSSYGWMDFG
B4: the IC50 with MAb 445-1 was found to be 4000 nM; with MAb 445-2, 13000 nM.

B5: human gastrin-17 (G17) (peptide)
peptide: EGPWLEEEEEAYGWMDF
modifications: N-terminal pyroglutamic acid (pE); C-terminal Phe-NH2 (amide)
B5: the Inhibition at 10 nmol/ml (250 pmoles/well) with MAb 458-3 [2] is 92.4%; in the assay with MAb 458-1 [3], 94.3%; with MAb 458-5, 91.9%; in the assay with MAb 458-4, 88.4%; with MAb 458-2, 86%. For the same molecule, the IC50 with MAb 400-1 stood at 2030 nM; with MAb 400-2, 85 nM; in the assay with MAb 400-3 it was 1080 nM; in the assay with MAb 400-4, 620 nM.

B6: glycine-extended gastrin-17 (G17-Gly) (peptide)
peptide: [pGlu]GPWLEEEEEAYGWMDFG
modifications: ends and bridges not checked
Turning to B6, the IC50 amounted to 700 nM with MAb 445-1; 1790 nM with MAb 400-1; 77 nM in the assay with MAb 400-2; 1390 nM with MAb 400-3; 699 nM with MAb 400-4; 5000 nM with MAb 445-2. In addition, the Inhibition at 10 nmol/ml (250 pmoles/well) with MAb 458-1 [4] came to 2.1%.

These data come from patent publication US20150166656A1.
